Reference: publication PMC3507203 (Biology Open, 2011)

Target: T1, GST-tagged KLHL18 (human, UniProt O94889 1-574)
T1 sequence (looked up): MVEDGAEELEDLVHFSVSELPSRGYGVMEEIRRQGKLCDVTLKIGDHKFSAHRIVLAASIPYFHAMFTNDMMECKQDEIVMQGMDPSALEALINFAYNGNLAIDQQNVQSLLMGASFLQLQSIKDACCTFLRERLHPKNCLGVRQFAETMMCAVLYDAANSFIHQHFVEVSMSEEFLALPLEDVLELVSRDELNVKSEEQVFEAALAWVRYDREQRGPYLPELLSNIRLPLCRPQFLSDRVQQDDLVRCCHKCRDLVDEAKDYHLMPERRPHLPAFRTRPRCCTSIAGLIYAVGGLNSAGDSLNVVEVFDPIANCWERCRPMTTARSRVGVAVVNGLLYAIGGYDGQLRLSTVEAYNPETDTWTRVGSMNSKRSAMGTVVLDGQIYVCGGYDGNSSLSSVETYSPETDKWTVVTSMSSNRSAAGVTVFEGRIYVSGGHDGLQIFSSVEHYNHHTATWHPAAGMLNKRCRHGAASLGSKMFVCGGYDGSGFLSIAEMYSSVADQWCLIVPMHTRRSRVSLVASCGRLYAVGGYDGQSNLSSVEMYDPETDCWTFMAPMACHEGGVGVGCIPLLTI
Test: pull-down

B1: histidine-tagged Aurora-A (natural protein, human, UniProt O14965 1-403, looked up)
chain: MDRSKENCISGPVKATAPVGGPKRVLVTQQFPCQNPLPVNSGQAQRVLCPSNSSQRIPLQAQKLVSSHKPVQNQKQKQLQATSVPHPVSRPLNNTQKSKQPLPSAPENNPEEELASKQKNEESKKRQWALEDFEIGRPLGKGKFGNVYLAREKQSKFILALKVLFKAQLEKAGVEHQLRREVEIQSHLRHPNILRLYGYFHDATRVYLILEYAPLGTVYRELQKLSKFDEQRTATYITELANALSYCHSKRVIHRDIKPENLLLGSAGELKIADFGWSVHAPSSRRTTLCGTLDYLPPEMIEGRMHDEKVDLWSLGVLCYEFLVGKPPFEANTYQETYKRISRVEFTFPDFVTEGARDLISRLLKHNPSQRPMLREVLEHPWITANSSKPSNCQNKESASKQS
**Q.** Does B1 bind?
**A.** Result: binds
